{
  "source": "patent US20190144917",
  "key": {"[1]": {"test_system": "S3: Biotin-CGPLGVRGKK(Cy7)eGvndneeGffsar-NH2", "sequence (chain, as listed by the source)": "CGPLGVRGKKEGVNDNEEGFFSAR"}, "[2]": {"test_system": "S1: Biotin-CGPVGLIGK(Cy7)eGvndneeGffsar-NH2", "sequence (chain, as listed by the source)": "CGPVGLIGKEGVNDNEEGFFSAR"}, "[3]": {"test_system": "DMNPE-veiled C1-NPs (STREAMs)"}, "[4]": {"test_system": "C1-NPs: fluorescein-conjugated MMP substrate peptide C1 (FAM-sk-PLGLEEA-GC) coupled to iron oxide nanoparticles"}, "[5]": {"test_system": "S2: Biotin-CGPVPLSLVMK(Cy7)eGvndneeGffsar-NH2", "sequence (chain, as listed by the source)": "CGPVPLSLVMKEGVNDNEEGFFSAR"}},
  "data": [
    {"substance": "recombinant MMP2", "values": [
      {"measurement": "relative proteolysis (Cy7 signal after streptavidin depletion of uncleaved peptide)", "setting": "[1]", "result": "responded primarily to MMP2 and MMP9"},
      {"measurement": "relative proteolysis (Cy7 signal after streptavidin depletion of uncleaved peptide)", "setting": "[2]", "result": "responded primarily to MMP2 and MMP9"}
    ]},
    {"substance": "recombinant MMP9", "values": [
      {"measurement": "relative proteolysis (Cy7 signal after streptavidin depletion of uncleaved peptide)", "setting": "[1]", "result": "responded primarily to MMP2 and MMP9"},
      {"measurement": "relative proteolysis (Cy7 signal after streptavidin depletion of uncleaved peptide)", "setting": "[2]", "result": "responded primarily to MMP2 and MMP9"},
      {"measurement": "proteolysis (fluorescence dequenching)", "setting": "[3]", "result": "marked reduction in proteolysis"},
      {"measurement": "catalytic efficiency (Michaelis-Menten fit)", "setting": "[4]", "result": "catalytic efficiencies>10^3 M^-1 s^-1 and 10^4 M^-1 s^-1, respectively"},
      {"measurement": "proteolysis (fluorescence dequenching)", "setting": "[4]", "result": "significantly cleaved by MMP13, 7, 1, and 9"}
    ]},
    {"substance": "recombinant MMP13", "values": [
      {"measurement": "proteolysis (fluorescence dequenching)", "setting": "[3]", "result": "marked reduction in proteolysis"},
      {"measurement": "fluorescence dequenching measurements of protease cleavage", "setting": "[4]", "result": "with MMP13 as the most efficient"},
      {"measurement": "proteolysis (fluorescence dequenching)", "setting": "[4]", "result": "significantly cleaved by MMP13, 7, 1, and 9"}
    ]},
    {"substance": "recombinant MMP19", "values": [
      {"measurement": "relative proteolysis (Cy7 signal after streptavidin depletion of uncleaved peptide)", "setting": "[5]", "result": "cleaved efficiently by MMP7 and MMP19"}
    ]},
    {"substance": "recombinant thrombin", "values": [
      {"measurement": "cleavage monitored by fluorescence release", "setting": "[3]", "result": "reduced cleavage of the substrate"}
    ]}
  ]
}
